Assay results published in the supplement of paper PMC9170038.

Tested on: K4 kissing-loop RNA reporter
Test: apparent KD of K4 kissing-loop reporter; higher = weaker reporter binding
Conditions: Eterna round: R107
Experimental: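 RNA-MaP round R107: designed RNA switches with theophylline, tryptophan, arginine or FMN aptamers are transcribed on-chip within common flanks. They are titrated with a labelled K4 kissing-loop RNA reporter in RNA-MaP buffer (100 mM Tris pH 7.5, 80 mM KCl, 4 mM MgCl2), without ligand or with the indicated ligand. Median apparent KD per design.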

[1] = input ligand: theophylline 20 uM
[2] = input ligand: tryptophan 2.4 mM
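Further: bound reporter read as fluorescence of individual clusters on recovered sequencing chips by microscopy, with normalized cluster intensities fitted with a binding model.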

| Sequence | apparent KD of K4 kissing-loop reporter (input ligand: FMN 200 uM) [nM] | apparent KD of K4 kissing-loop reporter (input ligand: arginine 13.2 mM) [nM] | apparent KD of K4 kissing-loop reporter (input ligand: none) [nM] | apparent KD of K4 kissing-loop reporter [1] [nM] | apparent KD of K4 kissing-loop reporter [2] [nM] |
| --- | --- | --- | --- | --- | --- |
| CGCGCGCGCUGAGAGGCGCGCGCGAAUGAUACCAGUAUAUAAGAAUACCCUUGGCAGCAUAAGAAAGAUAUAGUGAUGUUGUAUA [SSTheophA.D] | 75.3 | 199 | 43.1 | 201 | 29 |
| CGGAUCGCAUCAGGAUAUCUCUCAUCAGUGAUGUUGGUGAAGCGUACGCGAAAGCGUACGCAGAUGAGAGAAGGGAUGCGAUCCG | 467 | 763 | 1670 | 766 | 945 |
| CGGCCGUUAUGAGAUACCAGAGUGGCGACCAGUGAUGUUGGUCGACGCUUGCGGUCGUCUCUCCCUUGGCAGCUUAGUACGAAAG [Inisar] | 97.4 | 88.2 | 91.8 | 73.8 | 91.3 |
| CGGCGGAGUGAUGUUCCACCUACUGCGGAUACCAGCUUUGCCAGAGGCCCUUGGCAGCCGCACGGCUCAGUGAUGUUGGGUUGCG [Same State Theophylline A G12] | 237 | 162 | 227 | 219 | 195 |
| CGGCUCUAUCCUAGUAUUAAGAGGGAGUUGCGAGGACCGGUACGGCCGCCACUCGAAGUAGUUUGGCCAGUGAUGUUGGUCUUAC [Qubeatonza] | 223 | 213 | 129 | 152 | 421 |
| CGGGAUGUUAAAGGAUAUAGCAGGUGAUACAAGAAAGUGAGUGAUGUUUAUGUAGAUGAUGAUAUGUUAGAAGGUUAACAAAACG [abcdefghijkl] | 1040 | 726 | 908 | 686 | 581 |
| CGUAGCAGACGAAGGAGCGGCUACCUGAUUCAAGGUGAUGCUUGAGUGAUGUUCAGGUGUAGCCAGGUAGGUCGCGUCUGCUACG [Arg B Ex t9] | 201 | 144 | 164 | 180 | 170 |
| CGUUUAUAGCAGGAUACCAGUACCCAUUAUGUACGUUUAUAGUAGAGUGAUGUUCUAAAGUACCCUUGGCAGCUUCCUGUGUCCC [ExTheophylB.Ab] | 163 | 178 | 190 | 198 | 150 |
| CUAUAAGUGCCGAGUGAUGUUCGGCCAAUACGAGGACCGGUACGGCCGCCACUCGGUCAGUGGGUGCCCACCGGGCAUGGCUGAC [Cecezaa] | 174 | 217 | 176 | 227 | 112 |
| CUCGAGUGAUGUUCGAUUAUUUAUACAGAUACCAGUGAAUUUUAACACCCUUGGCAGCUGGUUGUAUCAUUUUUUUUUACUAAAG [JR_ExcTheophyA_Sub008] | 140 | 166 | 179 | 225 | 133 |
| CUGACCAACAGCGAUACCAGCGUGGAGUGAUGUUCCGUGGAUCGGAGUGAUGUUCCGAAGCGCCCUUGGCAGCGCAGAAGCAGGA [Exclusion Theophylline B GF11] | 197 | 136 | 201 | 150 | 152 |
| CUGCCUCACUCGGCCGCCACUGUAUAAAUGUGACAGUGAUGUUGUCGUCGGAAAGGGCACUUAGGCAGGACCGGGAGUUUCAGGC [theeternabot_exclusion_KL_Trp_B_20] | 837 | 409 | 801 | 870 | 686 |
| CUUAAGAUAUGAGUGAUGUUCAUGUCCGAAGGAGCGUGCGAAAGCACAGGUAGGUCGCGGAUGUGAGUGAUGUUCAUGUAAGCGA [KL-XArg-A12 #analogue] | 172 | 105 | 119 | 135 | 153 |
| CUUGAGACAUGAGUGAUGUUCAUGUCCGAAGGAGCGUGCGAAAGCACAGGUAGGUCGCGGACGUGAGUGAUGUUCAUGUGAGCGA [KL-XArg-A10 #analogue] | 236 | 163 | 202 | 223 | 201 |
| CUUGGAAGGACGGCCGCCACUGGGCAGUGAUGUUGCCCGACCAGGUAACGCAGUGAUGUUGCGACCAGGACCGGGUCCUAGGAAU [Exclusion Tryptophan B GF 24] | 161 | 140 | 155 | 136 | 105 |
| CUUGGCAUGCGCGAUACCAGCGAACAUAGCAAGCUACGGGUAGUGAUGUUAUCUGAAUAACGCCCUUGGCAGCGCACAUGCCGGC [clock] | 872 | 418 | 593 | 679 | 712 |
| GAAAGAAAGAAUGAUACCAGACACCCGAGUGAUGUUCGGAGCAGAGUGAUGUUCUUUUAAGUCCCUUGGCAGCAUAAAAGAAAAG [whbob_SS_Theo_B_sa82] | 109 | 138 | 153 | 159 | 119 |

| Sequence | apparent KD of K4 kissing-loop reporter (input ligand: FMN 200 uM) [nM] | apparent KD of K4 kissing-loop reporter (input ligand: arginine 13.2 mM) [nM] | apparent KD of K4 kissing-loop reporter (input ligand: none) [nM] | apparent KD of K4 kissing-loop reporter [1] [nM] | apparent KD of K4 kissing-loop reporter [2] [nM] |
| --- | --- | --- | --- | --- | --- |
| GACAACAGGGUGAGACUCACGGCGCCAGAAGGAGCGGUGAUUCCACCAGGUAGGUCGCUGGCCCAGUGAUGUUGGGCUUUGUGUC [Onoran] | 129 | 120 | 138 | 133 | 123 |
| GACAAUUCCGCUUCCGAGCAUACUUGACUGAAGGAUAUCAUCGUGUUGAGAAGGUCAGUAACAGAGAGUGAUGUUCUUUGAGGUC [theeternabot_sameState_KL_FMN_A_19] | 242 | 168 | 234 | 207 | 151 |
| GAGAACUCUUACGAUACCAGCCGGAGUGAUGUUCCGUGCUUGGACGUAGUAACCCGCACCGGCCCUUGGCAGCGUGGAUCCUAUG [Biorar] | 86.1 | 78.3 | 82.3 | 79.3 | 74.4 |
| GAGAAUCUAAUUGAUACCAGAGUAAGAACCAGUGAUGUUGGAAGAUUCCCUAAUAAAUAACUCCCUUGGCAGCGGAAGAGAAUAG [Totally accidental 2] | 142 | 230 | 176 | 327 | 172 |
| GAGGUACAGGCGGCCGCCACUAGUGAUGUUAGUGAUGUUAGAUAAAGUAUAUAUCGGCGUGUAGAUAGGACCGGGCCUGAUGGAG [ssrykmullin] | 49 | 33.6 | 60 | 42 | 53.9 |
| GAGGUACAGGCGGCCGCCACUAGUGAUGUUAGUGAUGUUUGAUACUGUAUAUAUCGGCGUGUAGAUAGGACCGGGCCUGAUGGAG [znmkmullin] | 122 | 78.7 | 100 | 109 | 91.8 |
| GAUGAUCGCGCGGCCGCCACUGGUCAGUGAUGUUGACAUUAAUGCGCCGAGUAGUAACGGCGCAACAGGACCGGGCGCGAUGUAG [#11 K4 Tryptophan B Same State] | 165 | 160 | 143 | 185 | 171 |
| GCAACAUUGGCAGGAUAUCCUUCUCAGUGAUGUUGAGGGUUCAGCUAACGAAAGUUAGUUGUACCAGGAGAAGGGCUAAUGUUGC [Omei KL FMN B SS A v7] | 416 | 815 | 1420 | 906 | 1440 |
| GCAACAUUGGGAGGAUAUCAUUCUGAGUGAUGUUCAGGGUUCAGCUAACGAAAGUUAGUUGUACCAUGAGAAGGUCUAAUGUUGC [Omei KL FMN B SS A v6] | 342 | 975 | 1180 | 1020 | 1150 |
| GCAAGGCUACAAGGAUAUGCGCGAACCUACCGCCAAGCGGCUACCGGUGAGUCAGUGAUGUUGGCUGCAGAAGGUGUGAUUGAGC [theeternabot_sameState_KL_FMN_B_45] | 383 | 301 | 365 | 380 | 334 |
| GCACUACAAUAAGGAUAUCAUAAAAUGGAGAGCGAGUGAUGUUCGCAGAGACACCUAUUUUUCCUAUGAGAAGGUAUUAACGCCG [theeternabot_sameState_KL_FMN_B_40] | 97.8 | 99 | 120 | 161 | 93.2 |
| GCACUCCAUCGGACGUAAGUGAUGUUUACCCGAGGACCGGUACGGCCGCCACUCGACCGUGCAUAACCAAAUCAAAUAGCUUCCG [theeternabot_exclusion_KL_Trp_A_31] | 143 | 127 | 138 | 120 | 221 |
| GCAGUCAAUCAACCACGAAAGUGGAUGGAUACCAGCCCGAAACCGGGCCCUUGGCAGCCAGUGAUGUUGGAAGACUGCUUUAAAA [#SwitchBubble 15 #K4Late] | 974 | 256 | 607 | 219 | 337 |
| GCAGUGAUGUUGCAAAAUGUCUGUGGUAGUCGAGGACCGGUACGGCCGCCACUCGGUGAGAACCUGCUAAUACAUCGAUAAGUGA [IX] | 706 | 580 | 627 | 810 | 666 |
| GCAGUGAUGUUGCGCGGGUACGGUAGAGUGCGAGGACCGGUACGGCCGCCACUCGUACGGAACUGGCUAAUAUAUGGAUAGGUGA [V] | 496 | 318 | 446 | 406 | 243 |
| GCAGUGAUGUUGCUGAUGUACAGUGGGAUACGAGGACCGGUACGGCCGCCACUCGUACAGAACUUGUUAAUACAUCGAUAGGUGA [XIII] | 702 | 759 | 880 | 837 | 564 |
